Results on one molecule are retold here after PMC4287557.

This experiment has as its target JRFL SOSIP trimer (HIV-1 subtype B, truncated at residue 663), negatively selected (HIV-1 subtype B strain JRFL).

B1: PGV04 Fab (Fab, V domains shown)
VH: QVQLVQSGSGVKKPGASVRVSCWTSEDIFERTELIHWVRQAPGQGLEWIGWVKTVTGAVNFGSPDFRQRVSLTRDRDLFTAHMDIRGLTQGDTATYFCARQKFYTGGQGWYFDLWGRGTLIVVSS
VL: EIVLTQSPGTLSLSPGETASLSCTAASYGHMTWYQKKPGQPPKLLIFATSKRASGIPDRFSGSQFGKQYTLTITRMEPEDFARYYCQQLEFFGQGTRLEIR
In turn, B1 gave an increase of the melting temperature (Tm) of the JRFL SOSIP-Fab complex over the trimer alone, DSF of 3.6 °C.
